# Laboratory results published in article PMC10808242, “Antibodies from dengue patients with prior exposure to Japanese encephalitis virus are broadly neutralizing against Zika virus” (Communications Biology, 2024).
# B1: huMAb K5 expressed as full-length human IgG1 (K5-IgG1) (antibody, V domains shown)
# VH: EVQLLESGAEVKKPGSSVKVSCQASGDTFSNSDINWVRQAPGQGLEWMGGIIPAYDTTNYARTFQGRVAITADKSTSTVYMELSRLRSEDTAVYYCATDQRDYFGLGNHFNAQHFWGQGTLVTVSS
# VL: AIRMTQTPLSLSASVGDRVTITCRASQSISNYLNWYQQRPGKAPNLLIYTASNLHSGVPSRFSGSGSGTDFTLTISSLQPEDFATYYCQQSYSGGYTFGQGPSWEIK
# B2: huMAb K8b expressed as full-length human IgG1 (K8b-IgG1) (antibody, V domains shown)
# VH: QVQLVQPGAEVVKPGASVKLSCKTSGYTFTSNWMHWVKQAPGQGLEWIGEIDPSDSYTNYNQNFQGKAKLTVDKSTSTAYMEVSSLRSDDTAVYYCARGSNPYYYAMDYWGQGTSVTVSS
# VL: EIVMMQSPLTLSLSPGERATLSCRASQSVSSNYLAWYQQRPGQAPRLLIYGVSSRATGVPVRFSGSGSGTDFTLTISRLEPEDFAVYYCQHYGGSLSWTFGQGTKVEIK
# notes: also called pVCHIg-hG1-K8b + pVCLIg-hκ-K8b
# Experiments:
# [1] = biological target: DENV-1 virus-like particle (prM/E VLP) (dengue virus serotype 1)
# [2] = biological target: ZIKV VLP with E R193A (Zika virus); experiment: ELISA
# [3] = biological target: ZIKV VLP with E T231A (Zika virus); experiment: ELISA
# [4] = biological target: T1, mature form virus-like particles of dengue virus serotype 2 (mD2VLP) (Dengue virus type 2, strain 16681 …, UniProt A0A173DS53); experiment: cryo-EM structure; conditions: both partners purified
# T1 construct: also called mature DENV-2 VLP; pVD2i-C18S; copies: 60 +
Binder,"FRμNT50, neutralisation of the prototype DENV-1 strain on Vero cells [1] [µg/mL]",percent loss of binding relative to ZIKV WT VLP [2] [%],percent loss of binding relative to ZIKV WT VLP [3] [%],stoichiometry N [4]
B1,0.771,70,70,
B2,,,,60 F(ab) arms per VLP of 60 E proteins
